Reference: doi:10.1101/2022.07.24.501275

Experiments:
Test in all cases: SPR
[1] = target: 16A Fab W34F (mouse | human)
[2] = target: 14A Fab G32R (mouse | human)
[3] = target: 16A Fab R32G (mouse | human)

Substance	KD(peptide)/KD(GalNAc-T) [1]	Kd [2]	KD(peptide)/KD(GalNAc-S) [3]
MUC1 glycopeptide RPAPGST(Tn)APPAHG	2.8 fold		
MUC1 glycopeptide RPAPGS(Tn)TAPPAHG		128 nM	1.9 fold
